These results are taken from patent US20230357340A1 (APRILBIO, published 2023).

Experiment [1] addresses T1, recombinant human IL-18 (human, UniProt Q14116 37-193).
T1 construct: also called recombinant human IL-18 protein
T1 sequence (looked up): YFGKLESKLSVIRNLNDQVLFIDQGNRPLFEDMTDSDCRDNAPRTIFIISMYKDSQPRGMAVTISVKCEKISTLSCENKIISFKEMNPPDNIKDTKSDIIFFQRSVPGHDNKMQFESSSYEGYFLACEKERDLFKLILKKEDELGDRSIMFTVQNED
The experiment in a line: SPR KD of this filing compared with a literature BIAcore value (Kim et al. 2000). On the procedure: (§1) Surface Plasmon Resonance (SPR) assay was performed by Wide River Institute of Immunology (Seoul National University, Seoul, KR) to measure the binding affinity, equilibrium dissociation constant (KD), of APB-R3 to recombinant human IL-18 (Prospec) and human serum albumin (Sigma) by using BiaCore™ T200 (GE Healthcare), Sensor Chip CM5 (Cytiva), and HBS-EP+(Cytiva), as a running buffer. APB-R3 was immobilized by using Amine Coupling Kit (GE Healthcare) in pH 4.5 and the analyte of human IL-18 was diluted and prepared at 62.5 nM, 31.3 nM, 15.6 nM, 7.8 nM, 3.9 nM, and 1.95 nM, and the analyte of human serum albumin was diluted and prepared at 1,250 nM, 625 nM, 313 nM, 156 nM, 78 nM, 39 nM, and 19.5 nM. Kinetics between APB-R3 and human IL-18 or human serum albumin was analyzed by 1:1 binding fitting.
A general note: Surface plasmon resonance follows binding to a sensor surface in real time, without labels.

Experiment [2] addresses T2, recombinant mouse IL-18 protein (mouse, UniProt P70380 36-192).
T2 sequence (looked up): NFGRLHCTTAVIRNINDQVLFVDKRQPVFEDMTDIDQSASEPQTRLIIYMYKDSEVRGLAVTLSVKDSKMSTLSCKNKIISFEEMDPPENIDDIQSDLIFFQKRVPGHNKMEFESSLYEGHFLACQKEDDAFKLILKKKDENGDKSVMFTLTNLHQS
The experiment in a line: cell-based or functional assay.

Experiment [3] deals with T1, recombinant human IL-18. As to the kind of experiment: SPR, BiaCore T200, APB-R3 amine-coupled on CM5 chip, human IL-18 as analyte, 1:1 fit. The procedure: as §1
Experiment [4] concerns the target T1, recombinant human IL-18. The experiment in a line: cell-based or functional assay.
A further experiment addresses T3, human serum albumin (human, UniProt P02768 25-609).
T3 construct: also called HSA; Human serum albumin (Sigma)
As to the kind of experiment: SPR, BiaCore T200, APB-R3 amine-coupled on CM5 chip, human serum albumin as analyte, 1:1 fit. On the procedure: as §1

T3 sequence (P02768 25-609 limits assumed): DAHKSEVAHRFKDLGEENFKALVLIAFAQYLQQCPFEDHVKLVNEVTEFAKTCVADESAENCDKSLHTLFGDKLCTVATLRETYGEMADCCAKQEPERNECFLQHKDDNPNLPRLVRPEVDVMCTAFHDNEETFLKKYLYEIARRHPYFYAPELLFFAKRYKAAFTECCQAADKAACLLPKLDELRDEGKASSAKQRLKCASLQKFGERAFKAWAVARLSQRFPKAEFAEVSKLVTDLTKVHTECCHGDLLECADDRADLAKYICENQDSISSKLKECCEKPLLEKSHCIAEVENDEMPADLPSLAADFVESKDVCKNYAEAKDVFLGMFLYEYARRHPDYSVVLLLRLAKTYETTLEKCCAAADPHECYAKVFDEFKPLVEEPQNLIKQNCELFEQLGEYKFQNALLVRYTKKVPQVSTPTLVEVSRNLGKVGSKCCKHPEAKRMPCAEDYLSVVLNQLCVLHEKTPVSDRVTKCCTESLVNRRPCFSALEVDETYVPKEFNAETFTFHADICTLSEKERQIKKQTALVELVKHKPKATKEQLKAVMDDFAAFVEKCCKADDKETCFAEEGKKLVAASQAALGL

B1: APB-R3 (recombinant fusion protein of anti-serum albumin Fab SL335 and human IL-18BP; heavy chain SL335H-peptide linker-IL-18BP, light chain SL335L) (other)
heavy: QVQLVQSGGGPVKPGGSLRLSCAASGFMFRAYSMNWVRQAPGKGLEWVSSISSSGRYIHYADSVKGRFTISRDNAKNSLYLQMNSLRAEDTAVYYCARETVMAGKALDYWGQGTLVTVSSASTKGPSVFPLAPSSKSTSEGTAALGCLVKDYFPEPVTVSWNSGALTSGVHTFPAVLQSSGLYSLSSVVTVPSSSLGTQTYICNVNHKPSNTKVDKKVEPKSSGSAPAPGSTPVSQTTTAATASVRSTKDPCPSQPPVFPAAKQCPALEVTWPEVEVPLNGTLSLSCVACSRFPNFSILYWLGNGSFIEHLPGRLWEGSTSRERGSTGTQLCKALVLEQLTPALHSTNFSCVLVDPEQVVQRHVVLAQLWAGLRATLPPTQEALPSSHSSPQQQG
light: DIVLTQSPGTLSLSPGETATLSCRASQSVGSNLAWYQQKPGQAPRLLIYGASTGATGVPARFSGSRSGTDFTLTITSLQPEDFATYYCQQYYSFLAKTFGQGTQLEIKRTVAAPSVFIFPPSDEQLKSGTASVVCLLNNFYPREAKVQWKVDNALQSGNSQESVTEQDSKDSTYSLSNTLTLSKADYEKHKVYACEVTHQGLSSPVTKSFNRGES
notes: The IL-18BP part is glycosylated; also called APB-R3 protein
By Kd is commonly meant the constant that tells how readily two partners part at equilibrium. In general, koff refers to the first-order rate constant of dissociation. A word on the kon: it is the rate constant with which the complex forms. Turning to B1, in the experiment with recombinant human IL-18 [1], the “fold higher binding affinity than human IL-18BPa (literature KD 399 pM)” value was ~6 fold. Also, the “IC50 (read off the curve); mouse IL-18-induced IFN-γ secretion by mouse CD4+ T cells” value in experiment [2] is ~0.4 nM. In the experiment with recombinant human IL-18 [3], the Kd amounted to 0.0609 nM, the koff turned out to be 2.48e-05 s⁻¹ and the kon was found to be 406000 M⁻¹ s⁻¹. The “IC50 of inhibition of IL-18-induced IFN-γ production in KG-1 cells” value with recombinant human IL-18 [4] is 0.0419 nM. In the experiment with human serum albumin, this molecule showed a Kd of 16.8 nM, a dissociation rate constant (koff) of 0.00157 s⁻¹ and a kon of 93800 M⁻¹ s⁻¹.
